# Publication PMC6436931, “Activation of the Endonuclease that Defines mRNA 3′ Ends Requires Incorporation into an 8-Subunit Core Cleavage and Polyadenylation Factor Complex” (Molecular Cell, 2019)
# T1: Ysh1;Yjr141w (Saccharomyces cerevisiae;Saccharomyces …, UniProt Q06224;P47172 1-779;1-347, |)
# T1 sequence 1: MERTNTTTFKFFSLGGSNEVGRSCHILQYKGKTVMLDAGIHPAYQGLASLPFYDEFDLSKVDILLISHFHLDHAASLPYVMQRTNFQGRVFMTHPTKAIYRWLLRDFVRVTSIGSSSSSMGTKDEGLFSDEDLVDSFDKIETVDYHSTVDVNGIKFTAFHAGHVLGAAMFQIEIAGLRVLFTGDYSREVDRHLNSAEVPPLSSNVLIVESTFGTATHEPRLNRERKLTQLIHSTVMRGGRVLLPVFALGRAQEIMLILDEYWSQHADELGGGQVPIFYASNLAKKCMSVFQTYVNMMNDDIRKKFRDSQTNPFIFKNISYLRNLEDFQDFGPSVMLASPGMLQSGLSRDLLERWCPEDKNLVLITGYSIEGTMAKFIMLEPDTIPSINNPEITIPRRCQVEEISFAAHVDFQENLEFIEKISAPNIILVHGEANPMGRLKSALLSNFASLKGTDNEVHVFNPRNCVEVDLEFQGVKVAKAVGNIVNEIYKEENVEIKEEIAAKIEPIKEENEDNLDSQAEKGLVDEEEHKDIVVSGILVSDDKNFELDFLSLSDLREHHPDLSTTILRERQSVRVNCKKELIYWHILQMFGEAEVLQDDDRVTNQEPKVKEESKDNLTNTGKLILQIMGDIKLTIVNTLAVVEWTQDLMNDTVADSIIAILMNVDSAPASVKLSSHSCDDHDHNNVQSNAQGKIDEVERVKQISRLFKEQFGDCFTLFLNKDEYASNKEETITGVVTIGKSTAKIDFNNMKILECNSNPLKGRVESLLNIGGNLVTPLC
# T1 sequence 2: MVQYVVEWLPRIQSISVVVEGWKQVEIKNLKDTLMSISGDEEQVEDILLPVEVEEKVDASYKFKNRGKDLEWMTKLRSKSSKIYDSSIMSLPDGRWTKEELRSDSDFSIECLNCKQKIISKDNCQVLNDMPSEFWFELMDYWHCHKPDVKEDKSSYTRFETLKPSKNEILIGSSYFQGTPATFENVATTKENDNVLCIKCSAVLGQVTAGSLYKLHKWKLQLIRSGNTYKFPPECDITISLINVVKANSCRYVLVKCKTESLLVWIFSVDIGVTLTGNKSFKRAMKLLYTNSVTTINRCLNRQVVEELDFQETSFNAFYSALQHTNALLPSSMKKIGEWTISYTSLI
# T2: Rna14;Rna15 (Saccharomyces cerevisiae;Saccharomyces …, UniProt P25298;P25299 1-677;1-296, |)
# T2 sequence 1: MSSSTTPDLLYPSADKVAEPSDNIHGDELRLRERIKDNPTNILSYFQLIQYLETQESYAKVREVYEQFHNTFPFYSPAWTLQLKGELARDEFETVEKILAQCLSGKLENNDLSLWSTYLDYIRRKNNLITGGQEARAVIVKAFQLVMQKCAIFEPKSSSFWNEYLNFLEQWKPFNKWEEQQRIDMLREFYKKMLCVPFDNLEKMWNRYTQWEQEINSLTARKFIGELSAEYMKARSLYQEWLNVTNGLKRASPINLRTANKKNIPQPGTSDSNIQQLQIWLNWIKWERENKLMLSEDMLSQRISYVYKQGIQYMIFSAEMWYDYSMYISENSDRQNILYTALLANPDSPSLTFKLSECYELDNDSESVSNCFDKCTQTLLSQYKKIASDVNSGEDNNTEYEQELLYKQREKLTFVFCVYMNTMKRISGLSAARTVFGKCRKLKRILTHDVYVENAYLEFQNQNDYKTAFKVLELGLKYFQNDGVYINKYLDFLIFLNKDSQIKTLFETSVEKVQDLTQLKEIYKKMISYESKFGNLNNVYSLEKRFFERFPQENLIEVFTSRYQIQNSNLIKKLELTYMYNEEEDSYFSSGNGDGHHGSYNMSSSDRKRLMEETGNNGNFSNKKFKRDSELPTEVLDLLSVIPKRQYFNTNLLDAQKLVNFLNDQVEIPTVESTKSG
# T2 sequence 2: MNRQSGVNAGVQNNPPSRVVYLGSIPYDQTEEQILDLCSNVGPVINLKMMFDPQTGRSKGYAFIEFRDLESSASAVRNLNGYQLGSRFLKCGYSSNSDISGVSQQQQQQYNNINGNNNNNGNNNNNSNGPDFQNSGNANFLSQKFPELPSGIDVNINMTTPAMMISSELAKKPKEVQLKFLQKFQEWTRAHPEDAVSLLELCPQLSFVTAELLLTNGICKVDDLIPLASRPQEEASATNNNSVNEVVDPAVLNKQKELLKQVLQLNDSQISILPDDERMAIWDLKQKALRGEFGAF
# Experiments:
# Assay in all cases: EMSA; EMSA: 50 nM RNA, 0.25-4.0 uM protein, protein diluted in 10 mM HEPES pH 7.9, 150 mM NaCl, 0.5 mM Mg(OAc)2, plus 1x loading dye (orange G, glycerol, EDTA); 30 min on ice; native 6% acrylamide/TBE PAGE
# [1] = biological target: T1, Ysh1;Yjr141w; settings: protein: recombinant;recombinant; tags: ;SII-3C (N-terminal) in Ysh1-Yjr141w; untagged in Ysh1-Mpe1-Yjr141w; copies: 1;1; label: 5'-FAM
# [2] = biological target: Pcf11;Clp1 (Saccharomyces cerevisiae;Saccharomyces …, UniProt P39081;Q08685 1-626;1-445, |); settings: protein: recombinant;recombinant; tags: 6H;; copies: 1;1; label: 5'-FAM
# [3] = biological target: T2, Rna14;Rna15; settings: protein: recombinant;recombinant; tags: 6H;; chain copies: 2;2; label: 5'-FAM
# Chain of Pcf11;Clp1 (P39081 whole entry, chain 1 of 2): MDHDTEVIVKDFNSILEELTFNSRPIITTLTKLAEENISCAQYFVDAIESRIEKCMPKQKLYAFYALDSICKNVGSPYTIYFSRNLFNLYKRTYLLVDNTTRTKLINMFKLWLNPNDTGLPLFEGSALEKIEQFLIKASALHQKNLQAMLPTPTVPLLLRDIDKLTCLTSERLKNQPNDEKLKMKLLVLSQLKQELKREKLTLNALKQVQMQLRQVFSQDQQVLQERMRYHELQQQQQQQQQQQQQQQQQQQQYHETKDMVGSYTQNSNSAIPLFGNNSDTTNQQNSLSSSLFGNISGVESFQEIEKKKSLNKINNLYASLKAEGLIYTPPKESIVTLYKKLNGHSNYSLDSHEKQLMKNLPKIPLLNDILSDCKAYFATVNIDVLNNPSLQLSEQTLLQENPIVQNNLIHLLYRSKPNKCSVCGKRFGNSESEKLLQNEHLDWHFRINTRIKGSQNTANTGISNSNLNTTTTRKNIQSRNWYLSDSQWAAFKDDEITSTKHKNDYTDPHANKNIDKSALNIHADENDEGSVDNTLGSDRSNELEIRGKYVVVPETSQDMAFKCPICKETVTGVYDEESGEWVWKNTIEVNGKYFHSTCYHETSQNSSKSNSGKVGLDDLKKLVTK
# Chain of Pcf11;Clp1 (Q08685 whole entry, chain 2 of 2): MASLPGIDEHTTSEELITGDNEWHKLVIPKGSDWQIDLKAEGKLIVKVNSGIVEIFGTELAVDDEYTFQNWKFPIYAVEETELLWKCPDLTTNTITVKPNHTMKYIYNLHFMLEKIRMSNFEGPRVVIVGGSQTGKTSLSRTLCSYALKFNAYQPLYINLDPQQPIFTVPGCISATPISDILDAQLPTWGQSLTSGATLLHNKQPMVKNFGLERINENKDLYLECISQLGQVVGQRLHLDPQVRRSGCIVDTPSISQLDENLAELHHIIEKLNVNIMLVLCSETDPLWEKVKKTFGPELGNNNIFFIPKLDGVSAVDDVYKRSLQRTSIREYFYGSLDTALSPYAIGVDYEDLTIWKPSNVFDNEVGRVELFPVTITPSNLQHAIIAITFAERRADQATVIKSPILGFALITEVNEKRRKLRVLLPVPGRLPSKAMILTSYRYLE
Binder,binding result [1],binding result [2],binding result [3]
AAGAACGUUAUUUAUAUUUCAAAUUUUUCUUUUUU (ssRNA) [CYC1d EMSA probe],no binding,binds,binds
CGUUAUUUAUAUUUCAAAUUUUUCU (ssRNA) [CYC1f EMSA probe],no binding,binds,binds
AAAAAAAAAAAAAAA (ssRNA) [A15],no binding,no binding,no binding
UUUUUUUUUUUUUUU (ssRNA) [U15],no binding,no binding,binds
CCCCCCCCCCCCCCC (ssRNA) [C15],no binding,no binding,no binding
GGGGGGGGGGGGGGG (ssRNA) [G15],no binding,no binding,binds
